The experiment addresses T1, His-tagged Hmmr (mouse, UniProt Q00547 1-794).
T1 construct: Hmmr, mouse; It is not restated for the bacterial construct; also called His-Hmmr; purified Hmmr; source: bacteria BL21 (DE3), purified (Ni-NTA)
T1 sequence (looked up): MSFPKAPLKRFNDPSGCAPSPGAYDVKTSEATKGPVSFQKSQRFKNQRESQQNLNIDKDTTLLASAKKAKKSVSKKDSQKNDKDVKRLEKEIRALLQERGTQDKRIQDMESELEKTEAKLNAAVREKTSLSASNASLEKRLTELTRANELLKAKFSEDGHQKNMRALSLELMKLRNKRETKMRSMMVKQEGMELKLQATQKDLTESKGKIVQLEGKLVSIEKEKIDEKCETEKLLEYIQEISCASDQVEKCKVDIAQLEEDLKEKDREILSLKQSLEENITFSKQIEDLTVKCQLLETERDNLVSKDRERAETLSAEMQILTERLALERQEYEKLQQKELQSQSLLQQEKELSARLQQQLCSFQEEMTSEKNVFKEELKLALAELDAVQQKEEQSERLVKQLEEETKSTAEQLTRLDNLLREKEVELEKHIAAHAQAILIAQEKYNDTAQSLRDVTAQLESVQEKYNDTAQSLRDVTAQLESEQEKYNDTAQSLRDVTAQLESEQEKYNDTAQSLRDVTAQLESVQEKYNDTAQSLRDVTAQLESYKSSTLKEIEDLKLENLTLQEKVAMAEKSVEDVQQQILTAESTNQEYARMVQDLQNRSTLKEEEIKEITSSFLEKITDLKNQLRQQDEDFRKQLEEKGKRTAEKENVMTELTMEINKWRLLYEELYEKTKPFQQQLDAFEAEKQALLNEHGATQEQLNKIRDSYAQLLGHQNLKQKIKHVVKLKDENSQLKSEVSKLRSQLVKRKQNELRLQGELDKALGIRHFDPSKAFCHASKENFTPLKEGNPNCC
Description: co-IP; in vitro binding assay: purified His-tagged Hmmr and HA-tagged Trim25 mixed without RNA or with in vitro transcribed Terc-53, 5S rRNA, full-length Terc or Terc-53 mut; one sample with Terc-53 treated with RNase A; immunoprecipitated with His antibody, blot with HA antibody. The note with it: both partners purified.

The values that follow come from publication PMC11700592, “Noncoding RNA Terc-53 and hyaluronan receptor Hmmr regulate aging in mice” (Protein & Cell, 2024).

B1: HA-tagged Trim25 (natural protein, mouse, UniProt Q61510 1-634, looked up)
chain: MAELNPLAEELSCSVCLELFKEPVTTPCGHNFCMSCLDETWVVQGPPYRCPQCRKVYQVRPQLQKNTVMCAVVEQFLQAEQARTPVDDWTPPARFSASSAATQVACDHCLTEIAVKTCLVCMASFCQEHLRPHFDSPAFQDHPLQSPIRDLLRRKCTQHNRLRELFCPEHGECICHICLVEHKTCSPTTLSQASADLEYKLRNKLTIMHSHINGATKALEDVRSKQQCVQDSMKRKMEQLRQEYMEMKAVIDAAETSSLRKLKEEEKRVYGKFDTIYQVLVKKKSEMQKLKAEVELIMDKGDEFEFLEKAAKLQGESTKPVYIPKIDLDHDLIMGIYQGAADLKSELKHSIKKLQKKSEEHNGSGNKGDQTQSTFKPVQPSKKTIQEKKTKKTPVAPGPPSHFSPNKLPTFGAPGQSLDSKATSPDAAPKASAAQPDSVGVKAKVLENFLTKSRTELLEYFVKVIFDYNTAHNKVSLSNKYTTASVSDGLQHYRSHPQRFTYCSQVLGLHCYKNGIHYWEVELQKNNFCGVGICYGSMERQGPESRLGRNPNSWCVEWFNNKISAWHNNVEKTLPSTKATRVGVLLNCDHGFVIFFAVTEKVHLMYKFKVDFTEALYPAFWVFSAGTTLSICSK
notes: Trim25, mouse; also called HA-Trim25; purified Trim25; source: purified
On to B1, for which the binding result is “binds”.
